Experiment: yeast display, Sf9 membrane polyspecificity reagent, FACS + sequencing; frameworks hold sequencing errors
Procedure, shortened: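 Synthetic nanobody libraries on Saccharomyces cerevisiae BJ5465 were galactose-induced for 36–48 hours, stained 1 hour at 4 °C with 10% biotinylated, detergent-solubilized Sf9 membrane reagent and enriched on streptavidin microbeads. FACS then separated cells into low and high (top ~1%) gates by anti-HA (expression) and streptavidin (reagent binding) fluorescence. Genes were colony-PCR amplified, MiSeq 2 × 250 sequenced and CDR-length filtered. A clone's polyreactivity label is that of its gate of origin.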

Sequence	polyreactivity (PSR sort gate)
QVQLVESGGGLVQAGGSLRLSCAASGFTFSFYAMGCDRQAPGKERELVATISSGGSTTYADSVKGRFTISRDNANNTVYLHMNSLKPEDTAVYYCAARYGRVRNYRYDYWGKGTQVTVSS	high polyreactivity
QVQLVESGAGLVQAGGSLRLTCAASGSNFYYYAMGWYRQAPGKERELVAAINGGDTYYADSVKGRFTISRDNAKNTVYLQMNSLKPEDTAVFYCAAEGVTVEWDYDYWGQGTQVTVSS	low polyreactivity
QVQLVESGGGLVQAGGSLRLSCAASGSIFYRNAMGWYRQAPGKERELVASISASGGRTYYADSVKGRLTISRDNAKNTVYFQMYSLNREETAFYYCNKVSPVAYWYSWGINFDFWGQGTQVTVSS	high polyreactivity
QVQLVESGGGLVQAGGSLRLSSAASGLIFWFYAMGWYRQAPGKERELVAAIDTDGGSTYYADSVKGRFTISRDNAKNTVYLQMNSLKPEDTAVYYCAATFAAYTQQTFYYWGQGTQVTVSS	low polyreactivity
QVQLVESGGRLVQAGGSLRLSCAASGRIILRNAMGWYRQAPGKERELVAAISSSGGRKYYADSVKGRFTISRDNAKNTVYLQMNSLKPEDTAVYYCNARWHGSFDYWGQGTQVTVSS	low polyreactivity
QVQLVESGGGLVQAGGSLRLSCAASGRISTYTMGWYRQAPGKERELVATISTHASTNYSDSVKGRFTISRDNAKYTVYLQKYSMKPEDNAVFYCATTVPVILYVTPSTYAVVGYEYWGQGTQVTVSS	low polyreactivity
QVQLVESGGGLVQAGGSLRLSCAASGSIIFLYAMGWYRQAPGKERELVASISTSGTTITYYADSVKGRFTISRDNAQNTGYLQMNSLKPEDTAVYYCAAEAYGNRDYWGQGTQVTVSS	low polyreactivity
QVQLVESGGGLVQAGGSLRLSCAASGSIFFWYTRGWYRQEPGKERQLVATITGSGSSTTYADSVKGRFTISRDNAKNSVYLQMNSLKPEDTAVYYCAAADIIDHSFPYDYWGQGTQVTVSS	low polyreactivity
QVQLVESGGGLVQAGGSLRLSCAASGSIFTYYAMGWYRQAPGKEREFVAAINRSGGSTYYADSVKGRFTISRDNAKYTVYLQMNSLKPEDTAVYYCAARRGSGALRYNYWGQGTQVTVSS	high polyreactivity
QDQLVESGRGIFKAGGSLRLSCAASGSIFGDNAMGWSRHAPGKDRELVAAISSGGPTYADSVKGRFTISRDNAKNTVYLQMNSLKAEDSAVYFCNATDGINPYDLTDFEFDYWGQGTEVTVSS	low polyreactivity
QVQLVESGGGLVQAGGSLRLSCAASGFTFYVYTMGWYRQAPGKERELVASISGGRTYYADSVKGRFTISRDNAKNTVYLQMNSLKPEDTAVYYCAAVPYPSYYDTRYDYWGPGTQVTVSS	low polyreactivity
QVQLVESGGGLVQAGGSLRLSCAASGFTFYHYAMGWYRQAPGKERELVATISKRGGSTYYADSVKGRFTISRDNAKNTVYLQMNSLKPEDTAVYYCAAKIYWSSLKMDYWGQGTQVTVSS	high polyreactivity
QVQLVESGVGLVQAGGRLRLSCAASGSIFPTNAMGWYRQAPGKERELVAAISGSGGSTYYADSVKGRFTISRDNAKNTVYLQMNSLKPEDTAVYYCAVKPAPTRTTKRLVYGYNYWGQGTQVTVSS	high polyreactivity
QVQLVESGGGLVQAGGSLRLSCAASGSIFHPYTMGWYRQAPGKERELVAAISWSGGNTNYADSVKGRFTISRDNAKNTVYLQMNSLKPEDTAVYYCNKATNLSGGYDSWGQGTQVTVSS	low polyreactivity
QVQRVESGGGLVQAGGSLRLSCAASGSIFFRNVMGWYRQAPGKERELVAAISSRGGSTYYADSVKGRFTISRDIAKNTVYLQMNSLKPEDTAVYYCATSHTPTYNYWGQGPQVTVSS	high polyreactivity
QLQLVESGGGLVQAGGSLRLSCAASGLTFVDYAMGWYRQAPGKERELVAAITSSGGSITYYADSVKGRFTISRDNAKNTVYLQLNSLKPEDTAVYYCNADYGIYTDSFRGPDYESWGQGTQVTVSS	low polyreactivity
QVQLVESGGGLVQAGGSLRLSCAASGFTFLGYAMGWYRKAPGKERELDASITYGGDSTYYADSVKARFTISRDNAKNTFYLEMISLKPEDTAVYYCNARPSYWWGGRLYGYWGQGSQVTVSS	high polyreactivity
QVQHVESGGGLVQAGGSLRLSCAASGRIFHWYAMGWYRQAPGKERELVAAIRWTGGSTYYADSVKGRFTISRDNAKNTVYLEMNSLKPEDTAVYYCAAKGYTGIFYEMDYWGQGTQVTVSS	low polyreactivity
QVHLVESGGGLVQAGGSLRLSCAASGFTFVYYTMGWYRQAPGKERELVAAITYGGNTYYADSVKGRFTISRDNAKNTVYLQMNSLKPEDTAVYYCAARYISSYDWGQGTEVTVSS	high polyreactivity
QVQLVESGGGLVQAGGSLRLSCAASGSTFSGYAKGWYRQAPGTEWELVAAINWNGGRTYYADSVKGRFTISRDNAKNTVYLQMNSLKPEDTAVYYCNAVTRAAYWWTARSTDYDYWGQGTQVTVSS	high polyreactivity
QVQLVESGGGLVQAGGSLRLSCAASGSTFRPYAMGWYREAPGKERELVAAITSTGGSTYYADSVKGRFTISRDNAKNSVSLQMNSLKPDDTAVYYCAAPLVRYAGPYDYWGQGTQVTVSS	low polyreactivity
QVQLVESGGGLVQAGGSLRLSCAASGSTFPLYAMGWYRQAPGKEREMVAAITGGGGRTYYADSVKGRFTISRDNAKNTVYLQMNSLKPEDTAVYYCNAVVYLTNYWYDYWGQGTQVTVSS	low polyreactivity

Sequence	polyreactivity (PSR sort gate)
QVQLVESGGGLVQAGGSLRLSCAASGSTFRGYAMGWYRQAPGKERELVAAITYISDSTYYADSVKGRFTLSRDNAKNTVYLQMNSLKPEDTAVYYCNAYYDGDWRYTSQETGDHWGQGTQVTVSS	low polyreactivity
QVQLVESGGGLVQAGGSLRLSCAASGRTFRLYAMGWYRQAPGKERELVAAISARGSSTYYADSVKGRFTISRDNAKNTVYLQMNSLKPEDTAVYYCAAKRSYPYGSGYWGQGTQVTVSS	high polyreactivity
QVQHVESGGGLVQAGGSLRLSCAASGSTFWYAMGWYRQAPGKERELVAAITARGGRTYYADSVKGRFTISRDNAKNTVYLQMNSLKPEDTAVYYCARLSYAGGQWIIAKYDYWGQGTQVTVSS	high polyreactivity
QVQLVESGGGLVQAGGSLRLSCAASGSTLYTYAMGWYRQAPGKERELVADISTGGSTYYADSVKGRFTISRDNAKNTVYLQMNSLKPEDTAVYYCAAESWFDPVDYWGQGTQVTVSS	low polyreactivity
QDQLVESGGGLVQAGGSLRLSCAASGNTYLNAMGWYRQAPAKEREMVAAISKGGADTYYADSVKGRFTISRDNAKYTVYLQMNSLKPEDTAVYYCNADYWFRFGSSVDQVTEDYWGQGTQVTVSS	low polyreactivity
QVQLVESGGGLVQAGGSLRLSCAASGFTFTGYAMGWYRQAPGKERELVAAITRGGGSTYYADSVKGRFTISRDNAKNTVYLQMNSLKPEDTAVYYCAAQRSRLIRISSPYYGHDYWGQGTQVTVSS	low polyreactivity
QVQLVESGGGLVQAGGSLPLSCAASGRTFPVYAMGWYRQAPGKERELVARINSGGRTTDADSVKGRFTISRDNAKNTVYLPKNSLKPEDSAVYYCNADSTYFRFDYWGQGTQVTVSS	high polyreactivity
QVQLVESGGGLVQAGGSLRLSCAASGRTFHWYAMGWYRQAPGKERELVAAIRYSAGSTYYADSVKGRFTISRDNAKNTVYLQMNSLKPEDTAVYYCAAEPYPYGPYYFLWLRYDYWGQGTQVTVSS	low polyreactivity
QVQLVESGGGLVQAGGSLRLSCAASGRTFKDYAMGWYRQAPGKERELVAAISWSGGDTYYADSVKGRFTISRDNAKNTVYLQMNRLKPEDTAVYYCNADPSGVFFYSLEFDYWGQGTQVTVSS	low polyreactivity
QVQLVESGGGLVQAGGSLRLSCAATGRTFLYNAMGWYRQAPGKERELVAAISFDDGSTYYADSVKGRFTISRDNAKNTVYLQMNSLKPEDPAVYYCAAEYLYVGDSQAYNQYEYWGQGTQVTVSS	low polyreactivity
QVQLVESGGGLVQAGGSLRLSCAASGRTSDGYARGWYRQAPGKERELVAGITEGGGDTYYADSVKGRFTISRDNAKNTVYLQMNSLKPEDTAVYYCNAVEGSRLPYDYWGQGTQVTVSS	low polyreactivity
QVQLVESGGGLVQAGGSLRLSCAASGRIFRKNVMGWYRQAPGKERELVAAITTRGGSTYYADSVKGRFTISRDNAKNTVYLQMNSLKPEDTAVYYCATRVQWNSRYDYWGQGTQVTVSS	high polyreactivity
QVQIVESGGGLVQAGGSLRLSCAASGRTYYYAMGWYRQAPGKERELVAAITESGDNTYYADSVKGRFTISRDNAKNTVYLQMNSLKPEDTAVYYCAVDYPSPSYYYEYYYWGQGTQVTVSS	high polyreactivity
QVQLVESGGGLVQAGGSLRLSCAASGSTFPYNAMGCDRQAAGKERELVAAISFSGGITTYADSVKGRFTISRDNAKNTVYLQMNSLKPEDTAVYYCNVAYTLHFGYWGQGTQVTVSS	low polyreactivity
QVQLVESGGGLDQAGGSLRLSCAASGRTFYANPMGWYRQAPGKQRELVAAIRRSGGRTYYADSVKGRFTISRDNAKNTVYLQMNSLKPEDTAVYYCATARYRAEMGYWGQGTQVTVSS	high polyreactivity
QVQLVESGGGLVQAGGSLRLSCAASGFIFSTNAMGWYRQAPGKERELVAAISASGGITYYADSVKGRFTISRDNAKNTVYLQMNSLKPEDTAVYYCAVYYYSPGNNIYGYWGQGTQVTVSS	high polyreactivity
QVQLVESGGGLVQAGGSLRLSCAASGRIFSRYAMGWYRQAPGKERELVATISSGGGTYYADSVKGRFTISRDNAKNTVYLQMNSLKPEDTAVYYCAAASYSGHGRYDDWGQGTQVPVSS	high polyreactivity
QVQLVESGGGLVQAGGSLRLSCAASGFTFRANAMGWYRQAPGKERELFATISRGGPTNYADSVKGRFTISRDNAKNTVYLQMNSLKPADTAVYYCAASFSPYHTDRGDYWGQGTQVTVSS	high polyreactivity
QVQLVESGGGLVQAGGSLRLSCAASGSTFYTYAMGWYRQAPGKERELVAAINRSGGTTYYADSVKGRFTISRDNAKNTVYLQMNSLNPEDTAVYYCARRRYGYDYWGQGTQVTVSS	high polyreactivity
QVQLVESGGGLVQAGGSLRLSCAASGSIFNIYARGWYRQAPGKERELVATITGIADSTYYADSVKGRFTISRDNAKNTVYLQMNSLKPEDTAVYYCNADPSGVFFYSLEFDYWGQGTQVTVSS	low polyreactivity
QVQLVESGGGLVQAGGSLRISCAASGRTFWRNAMGWYRQAPAKERELVAAISRGGSTNYADSVKGRFTISRDNAKNTVYLQMNSLKPEDTAVYYCAARYYYRYNYWGQGTQVTVSS	high polyreactivity

From the nanobody polyreactivity screen of Harvey et al. (2022)
